Experimental data reported in paper PMC4618557.

Biological target: Vasna-Cd4d3+4-bio (zebrafish)
Assay: SPR; BIAcore; Vasna-Cd4d3+4-bio immobilised on a streptavidin-coated sensor chip at high and low levels, Cd4d3+4-bio as reference; Islr2-Cd4d3+4-6xHis injected in serial dilutions; HBS-EP buffer, 28 °C; 20 μl/min for equilibrium, 100 μl/min for kinetics (7, 14, 28 μM); purification of the Vasna bait before capture not given

Islr2-Cd4d3+4-6xHis (domain or fragment)
Kd: 12.4 µM
half-life: 0.16 s
koff: 4.3 s⁻¹
